Laboratory results as given in patent US20060040319A1 (published 2006).
Where no end group is shown, it is not given here.

Target: Rh-(Crk-II)-Fl (mouse, UniProt Q64010 2-304, N-alpha-tetramethylrhodamine (Rh) on the N-terminal KRG peptide); Dapa(Fl) = diaminopropionic acid-fluorescein in the C-terminal peptide; K-epsilon-(Biotin) and C-terminal amide (present in the …)
Test: cell-based or functional assay

Chain of Rh-(Crk-II)-Fl (Q64010 other isoform, or with tags, fused parts or gaps limits assumed): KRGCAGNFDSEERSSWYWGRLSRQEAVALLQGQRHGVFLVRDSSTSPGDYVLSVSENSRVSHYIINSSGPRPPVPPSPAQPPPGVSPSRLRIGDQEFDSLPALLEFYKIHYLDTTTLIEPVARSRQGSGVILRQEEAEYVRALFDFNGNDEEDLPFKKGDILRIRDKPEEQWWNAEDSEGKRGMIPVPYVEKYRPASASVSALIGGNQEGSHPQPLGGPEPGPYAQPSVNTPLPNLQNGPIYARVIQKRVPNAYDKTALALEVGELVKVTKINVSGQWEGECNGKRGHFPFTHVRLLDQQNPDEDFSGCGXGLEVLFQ

reduction in the change in FRET after 60 minutes reaction with full length c-Abl, relative to the positive control: 50%
Binder: PPPALPPKRRR-NH2 [PPPALPPKRRR-NH2, high affinity ligand for the N-SH3 domain of Crk]
